± gives the uncertainty stated by the source.
B1: Tudor domain-containing protein 3, residues 554 to 611; numbered along this chain, Q9H7E2 (parent)
chain: KMWKPGDECFALYWEDNKFYRAEVEALHSSGMTAVVKFIDYGNYEEVLLSNIKPIQTE

Variants of: B1
Test: abundance fitness (aPCA) (normalised: wild type 0, dead -1); higher = more abundant; growth selection in yeast, the domain comes from the species named
Settings: Homo sapiens
In the case of L12V, the abundance fitness is reported as -0.368 ± 0.071. With G31Q the abundance fitness was -0.043 ± 0.17. In the case of E58K, the abundance fitness is reported as -0.024 ± 0.2. E58F showed an abundance fitness of -0.314 ± 0.24. Work on V35G yielded an abundance fitness of -0.384 ± 0.057. In the case of V35I, the abundance fitness is reported as -0.16 ± 0.13. For Y44M, the abundance fitness was 0.09 ± 0.12. Work on N51W yielded an abundance fitness of -0.271 ± 0.077. Variant A26D has an abundance fitness of -0.165 ± 0.22. Variant A26W has an abundance fitness of -0.195 ± 0.12. For H28Q, the abundance fitness was -0.088 ± 0.13. In the case of Y41R, the abundance fitness is reported as 0.108 ± 0.059. With K37C the abundance fitness was -0.612 ± 0.15. In the case of K37E, the abundance fitness is reported as -0.757 ± 0.094. F38W showed an abundance fitness of -0.416 ± 0.074. F38N gave an abundance fitness of -0.802 ± 0.2. With L49S the abundance fitness was -0.645 ± 0.07. With S50I the abundance fitness was -0.192 ± 0.094. For S50C, the abundance fitness was -0.08 ± 0.076. With P54V the abundance fitness was -0.298 ± 0.077. With P54S the abundance fitness was -0.158 ± 0.063. I39F showed an abundance fitness of -0.083 ± 0.1. With A34D the abundance fitness was -0.931 ± 0.13. For L27D, the abundance fitness was -0.871 ± 0.14. Work on V47A yielded an abundance fitness of -0.815 ± 0.097. With V47M the abundance fitness was -0.821 ± 0.093. Work on V47I yielded an abundance fitness of -0.134 ± 0.12. For V47G, the abundance fitness was -0.873 ± 0.068. V47L showed an abundance fitness of -0.433 ± 0.063. For T33Y, the abundance fitness was -0.184 ± 0.087. Work on K1A yielded an abundance fitness of -0.218 ± 0.14. C9T gave an abundance fitness of -1.04 ± 0.16. In the case of C9W, the abundance fitness is reported as -0.773 ± 0.095. C9K showed an abundance fitness of -0.915 ± 0.17. W3Y gave an abundance fitness of -0.312 ± 0.12. In the case of W3M, the abundance fitness is reported as -0.079 ± 0.11. W3R gave an abundance fitness of -1.01 ± 0.11. In the case of G42P, the abundance fitness is reported as -0.11 ± 0.14. G42E gave an abundance fitness of 0.005 ± 0.097. Variant T57Q has an abundance fitness of 0.02 ± 0.14. M32R gave an abundance fitness of -0.009 ± 0.055. In the case of M32A, the abundance fitness is reported as -0.036 ± 0.068. Work on M2G yielded an abundance fitness of -0.052 ± 0.068. E23F gave an abundance fitness of -0.1 ± 0.11. Work on N43E yielded an abundance fitness of -0.079 ± 0.061. For N43Y, the abundance fitness was 0.003 ± 0.15. In the case of E25I, the abundance fitness is reported as 0.011 ± 0.11. Variant I52K has an abundance fitness of -0.974 ± 0.43. A22Q showed an abundance fitness of -0.955 ± 0.15. Work on A22L yielded an abundance fitness of -0.857 ± 0.093. Variant F19S has an abundance fitness of -0.703 ± 0.086. F19H gave an abundance fitness of -0.457 ± 0.17. Work on F19I yielded an abundance fitness of -0.649 ± 0.27. In the case of F19V, the abundance fitness is reported as -0.756 ± 0.082. With F19Y the abundance fitness was -0.123 ± 0.14. Work on V24L yielded an abundance fitness of -0.215 ± 0.059. In the case of E46P, the abundance fitness is reported as -0.465 ± 0.11. E46W gave an abundance fitness of -0.259 ± 0.095. For K53E, the abundance fitness was -0.261 ± 0.079. Variant K18F has an abundance fitness of -0.917 ± 0.26. Work on K18S yielded an abundance fitness of -0.254 ± 0.067. K4Y showed an abundance fitness of -0.17 ± 0.12. K4P gave an abundance fitness of -0.912 ± 0.16. P5W gave an abundance fitness of -0.926 ± 0.1. For P5M, the abundance fitness was -0.401 ± 0.1. P5T gave an abundance fitness of -0.024 ± 0.079. W14K gave an abundance fitness of 0.166 ± 0.1. D7T gave an abundance fitness of -0.502 ± 0.09. With Y13T the abundance fitness was -0.323 ± 0.089.

Source: the Human Domainome abundance scans (Beltran et al. 2025)
